Patent US20170183403A1 (UNIVERSIT T Z RICH, published 2017)

Columns and labels:
Assay in all cases: peptide microarray (RepliTope), 15-mers
Reference peptide no. 30 = target: T1, Reference peptide no. 30
T1 construct: hIL-2 15-mer, first library, on microarray; also called peptide 30
T1 peptide: NINVIVLELKGSETT
Experimental: (§1) Additional incubations are with unrelated antibodies from the same isotype (mouse control IgG2a/lambda and mouse control IgG2a/kappa), and secondary antibodies (anti-mouse IgG (Thermo 84545, label DL650) or anti-mouse IgG (JIR 115-175-072, Label Cy5)) to assess unspecific binding due to the detection antibody. The experiments are performed essentially as described in Maksimov P, et al. 2012, PLoS One 7:e34212. doi:10.1371/journal. pone. 0034212.
(§2) The determination of peptide-antibody binding was performed by RepliTope-analysis where the peptide microarray (triplicate) was incubated with the primary antibody followed by a fluorescently labelled secondary antibody directed against the Fc-part of the primary one. All steps were performed on a TECAN microarray processing station enabling highly reliable and reproducible washing and incubation steps. After performing the incubation steps and subsequent to the final washing steps (to remove the unbound secondary antibodies) the microarrays were dried using a nitrogen stream and scanned in a high resolution microarray scanning system with appropriate wavelength settings. Control incubations were performed with an unrelated antibody having the same isotype to exclude false positive signals.
(§3) The resulting images were analyzed und quantified using spot-recognition software GenePix (Molecular Devices). For each spot, the mean signal intensity was extracted (between 0 and 65535 arbitrary units). For further data evaluation, the MMC2 values were determined. The MMC2 equals the mean value of all three instances on the microarray. Except the coefficient of variation (CV)—standard-deviation divided by the mean value—is larger 0.5, in this case the mean of the two closest values (MC2) is assigned to MMC2.

Reference peptide no. 59 = target: T2, Reference peptide no. 59
T2 construct: second library: peptide 23 with L(92) to Ala; also called peptide 59
T2 peptide: EEVLNAAQSKNFHLR
Experimental: as §1, §2, §3

Reference peptide no. 40 = target: T3, Reference peptide no. 40
T3 construct: hIL-2 15-mer, first library, parental Cys replaced by Ser, on microarray; also called peptide 40
T3 peptide: LNRWITFSQSIISTL
Experimental: as §1, §2, §3

Reference peptide no. 39 = target: T4, Reference peptide no. 39
T4 construct: hIL-2 15-mer, first library, parental Cys replaced by Ser, on microarray; also called peptide 39
T4 peptide: VEFLNRWITFSQSII
Experimental: as §1, §2, §3

Reference peptide no. 12 = target: T5, Reference peptide no. 12
T5 construct: hIL-2 15-mer, first library, on microarray; also called peptide 12
T5 peptide: PKLTRMLTFKFYMPK
Experimental: as §1, §2, §3

Reference peptide no. 58 = target: T6, Reference peptide no. 58
T6 construct: second library: peptide 22 with L(92) to Ala; also called peptide 58
T6 peptide: KPLEEVLNAAQSKNF
Experimental: as §1, §2, §3

Reference peptide no. 41 = target: T7, Reference peptide no. 41
T7 construct: hIL-2 15-mer, first library, parental Cys replaced by Ser, on microarray; also called peptide 41
T7 peptide: NRWITFSQSIISTLT
Experimental: as §1, §2, §3

Reference peptide no. 36 = target: T8, Reference peptide no. 36
T8 construct: hIL-2 15-mer, first library, on microarray; also called peptide 36
T8 peptide: EYADETATIVEFLNR
Experimental: as §1, §2, §3

Reference peptide no. 32 = target: T9, Reference peptide no. 32
T9 construct: hIL-2 15-mer, first library, parental Cys replaced by Ser, on microarray; also called peptide 32
T9 peptide: LELKGSETTFMSEYA
Experimental: as §1, §2, §3

Reference peptide no. 52 = target: T10, Reference peptide no. 52
T10 construct: second library: peptide 11 with F(62) and Y(65) to Ala; also called peptide 52
T10 peptide: YKNPKLTRMLTAKFA
Experimental: as §1, §2, §3

Reference peptide no. 21 = target: T11, Reference peptide no. 21
T11 construct: hIL-2 15-mer, first library, on microarray; also called peptide 21
T11 peptide: EELKPLEEVLNLAQS
Experimental: as §1, §2, §3

Reference peptide no. 60 = target: T12, Reference peptide no. 60
T12 construct: second library: peptide 24 with its first Leu replaced by Ala as printed (by count this is L90, not L92); also called peptide 60
T12 peptide: ANLAQSKNFHLRPRD
Experimental: as §1, §2, §3

Reference peptide no. 43 = target: T13, Reference peptide no. 43
T13 construct: second library: peptide 11 with F(62) to Ala; also called peptide 43
T13 peptide: YKNPKLTRMLTAKFY
Experimental: as §1, §2, §3

Reference peptide no. 7 = target: T14, Reference peptide no. 7
T14 construct: hIL-2 15-mer, first library, on microarray; also called peptide 7
T14 peptide: LDLQMILNGINNYKN
Experimental: as §1, §2, §3

Reference peptide no. 23 = target: T15, Reference peptide no. 23
T15 construct: hIL-2 15-mer, first library, on microarray; also called peptide 23
T15 peptide: EEVLNLAQSKNFHLR
Experimental: as §1, §2, §3

Reference peptide no. 57 = target: T16, Reference peptide no. 57
T16 construct: second library: peptide 21 with L(92) to Ala; also called peptide 57
T16 peptide: EELKPLEEVLNAAQS
Experimental: as §1, §2, §3

Reference peptide no. 51 = target: T17, Reference peptide no. 51
T17 construct: second library: peptide 15 with Y(65) to Ala; also called peptide 51
T17 peptide: KFAMPKKATELKHLQ
Experimental: as §1, §2, §3

Reference peptide no. 37 = target: T18, Reference peptide no. 37
T18 construct: hIL-2 15-mer, first library, on microarray; also called peptide 37
T18 peptide: DETATIVEFLNRWIT
Experimental: as §1, §2, §3

Reference peptide no. 3 = target: T19, Reference peptide no. 3
T19 construct: hIL-2 15-mer, first library, on microarray; also called peptide 3
T19 peptide: TKKTQLQLEHLLLDL
Experimental: as §1, §2, §3

Reference peptide no. 6 = target: T20, Reference peptide no. 6
T20 construct: hIL-2 15-mer, first library, on microarray; also called peptide 6
T20 peptide: HLLLDLQMILNGINN
Experimental: as §1, §2, §3

Reference peptide no. 13 = target: T21, Reference peptide no. 13
T21 construct: hIL-2 15-mer, first library, on microarray; also called peptide 13
T21 peptide: TRMLTFKFYMPKKAT
Experimental: as §1, §2, §3

Reference peptide no. 4 = target: T22, Reference peptide no. 4
T22 construct: hIL-2 15-mer, first library, on microarray; also called peptide 4
T22 peptide: TQLQLEHLLLDLQMI
Experimental: as §1, §2, §3

Reference peptide no. 18 = target: T23, Reference peptide no. 18
T23 construct: hIL-2 15-mer, first library, parental Cys replaced by Ser, on microarray; also called peptide 18
T23 peptide: ELKHLQSLEEELKPL
Experimental: as §1, §2, §3

Reference peptide no. 33 = target: T24, Reference peptide no. 33
T24 construct: hIL-2 15-mer, first library, parental Cys replaced by Ser, on microarray; also called peptide 33
T24 peptide: KGSETTFMSEYADET
Experimental: as §1, §2, §3

Measured: binding result

B1: NARA1 (antibody, mouse IgG2a, kappa, V domains shown)
VH: QVQLQQSGAELVRPGTSVKVSCKASGYAFTNYLIEWVKQRPGQGLEWIGVINPGSGGTNYNEKFKGKATLTADKSSSTAYMQLSSLTSDDSAVYFCARWRGDGYYAYFDVWGAGTTVTVSS
VL: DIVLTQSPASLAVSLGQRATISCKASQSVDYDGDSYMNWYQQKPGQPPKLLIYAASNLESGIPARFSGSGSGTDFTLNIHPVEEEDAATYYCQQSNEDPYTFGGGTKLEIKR
notes: Mouse monoclonal from hybridoma; Isotype controls used were mouse IgG2a; also called anti-IL2 (NARA1) antibody; monoclonal antibody NARA1
no binding: Reference peptide no. 30 | Reference peptide no. 59 | Reference peptide no. 40 | Reference peptide no. 39 | Reference peptide no. 12 | Reference peptide no. 58 | Reference peptide no. 41 | Reference peptide no. 36 | Reference peptide no. 32 | Reference peptide no. 52 | Reference peptide no. 21 | Reference peptide no. 60 | Reference peptide no. 43 | Reference peptide no. 7 | Reference peptide no. 23 | Reference peptide no. 57 | Reference peptide no. 51 | Reference peptide no. 37 | Reference peptide no. 3 | Reference peptide no. 6 | Reference peptide no. 13 | Reference peptide no. 4 | Reference peptide no. 18 | Reference peptide no. 33
